Measured values published in patent US20090041784A1 (Amgen, published 2009).
Like-named read-outs stand apart in the source and are kept apart here.

Tests used:
[1] = molecular target: T1, chimera-8 (amino acids 80-477 from human GCGR, remainder from human GLP-1 receptor) (human, UniProt P43220 24-83); assay: FMAT on cells expressing the chimeric receptor
T1 construct: Expressed on cells; not shown: in-frame C-terminal fluorescent protein, not identified

[2] = molecular target: T2, chimera-10 (amino acids 80-142 from human GCGR, remainder from human GLP-1 receptor) (human, UniProt P43220 24-83; P43220 146-463); assay: FMAT on cells expressing the chimeric receptor
T2 construct: Expressed on cells; not shown: in-frame C-terminal fluorescent protein, not identified

[3] = molecular target: T3, chimera-15 (amino acids 80-119 from human GCGR, remainder from human GLP-1 receptor) (human, UniProt P43220 24-83; P43220 125-463); assay: FMAT on cells expressing the chimeric receptor
T3 construct: Expressed on cells; not shown: in-frame C-terminal fluorescent protein, not identified

[4] = molecular target: T4, human glucagon receptor (human, UniProt P47871 26-477); assay: cell-based or functional assay
[5] = molecular target: T4, human glucagon receptor; assay: cell-based or functional assay; remark: listed apart in the source
[6] = molecular target: T5, cynomolgus glucagon receptor (cynomolgus (Macaca fascicularis), UniProt P47871 26-477 (human entry)); assay: cell-based or functional assay
T5 chain: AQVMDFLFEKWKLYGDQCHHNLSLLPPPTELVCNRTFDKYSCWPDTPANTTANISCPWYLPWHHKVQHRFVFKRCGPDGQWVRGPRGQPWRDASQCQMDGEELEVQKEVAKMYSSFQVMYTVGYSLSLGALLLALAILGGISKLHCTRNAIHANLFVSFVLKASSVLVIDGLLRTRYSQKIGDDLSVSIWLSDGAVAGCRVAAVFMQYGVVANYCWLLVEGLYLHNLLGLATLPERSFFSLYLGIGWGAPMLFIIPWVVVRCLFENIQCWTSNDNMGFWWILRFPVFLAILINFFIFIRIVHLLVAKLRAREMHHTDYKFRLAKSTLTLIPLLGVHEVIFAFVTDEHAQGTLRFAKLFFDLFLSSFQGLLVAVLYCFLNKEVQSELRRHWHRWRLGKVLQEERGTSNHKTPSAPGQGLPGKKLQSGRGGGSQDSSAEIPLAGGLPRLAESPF

[7] = molecular target: T6, mouse glucagon receptor (mouse (Mus musculus), UniProt Q61606 27-485); assay: cell-based or functional assay
[8] = molecular target: T7, rat glucagon receptor (rat (Rattus norvegicus), UniProt P30082 27-485); assay: cell-based or functional assay
[9] = molecular target: T4, human glucagon receptor; assay: Schild analysis of glucagon dose-response curves (cAMP HTRF) on CHO K1 cells expressing the receptor
[10] = molecular target: T5, cynomolgus glucagon receptor; assay: as above
[11] = molecular target: T6, mouse glucagon receptor; assay: as above
[12] = molecular target: T7, rat glucagon receptor; assay: as above

Binder	binding result [1]	binding result [2]	binding result [3]	IC50 of inhibition of glucagon-induced cAMP production (HTRF, CHO K1 cells expressing the receptor) [4] [nM]	IC50 of inhibition of glucagon-induced cAMP production (HTRF, CHO K1 cells expressing the receptor) [5] [nM]	IC50 of inhibition of glucagon-induced cAMP production (HTRF, CHO K1 cells expressing the receptor) [6] [nM]	IC50 of inhibition of glucagon-induced cAMP production (HTRF, CHO K1 cells expressing the receptor) [7] [nM]	IC50 of inhibition of glucagon-induced cAMP production (HTRF, CHO K1 cells expressing the receptor) [8] [nM]	Kb (dissociation constant of antibody binding by Schild analysis) [9] [nM]	Kb (dissociation constant of antibody binding by Schild analysis) [10] [nM]	Kb (dissociation constant of antibody binding by Schild analysis) [11] [nM]	Kb (dissociation constant of antibody binding by Schild analysis) [12] [nM]
antibody A-10 (antibody, V domains shown, Human antibody from XenoMouse hybridoma (IgG2 or IgG4 strains), purified from conditioned medium; also called L10H10) VH: QVQLQQSGPGLVRPSQTLSLTCAISGDSVSSNYAAWNWIRQSPSRGLEWLGRTYYRSKWYNDYAVSVRSRTTINPDTSKNQFSLQLNSVTPEDTAVYYCTREDGSGWYGAFDIWGQGTMVTVSS VL: DIQMTQSPSSLSASVGDRVTITCQASQDISKYLNWYQQKPGKAPKLLIYDASNLETGVPSRFSGSGSGTDFTFTISSLQPEDIATYYCQQYGNLPITFGQGTRLESK	no binding	no binding	no binding									
antibody A-21 (antibody, V domains shown, Human antibody from XenoMouse hybridoma; also called L21H21) VH: EVRLVESGGDLVQPGGSLRLSCAASGFTFSSYAMNWVRQAPGKGLEWISYIGSSSSAIYYGDSVKGRFTISRDNAKNSLYLQMNSLRDEDTAVYYCARYRSGWSPLFDFWGQGSLVTVSS VL: DIQMTQSPSSVSASVGDRVTITCRASQGISSWLAWYQQKPGKAPKLLIYAASSLQSGVPSRFSGSGSGTDFTLTISSLQPEDFATYYCQQANSFPLTFGGGTKVEIK	no binding	no binding	no binding	47.2								
antibody A-3 (antibody, V domains shown, Human antibody from XenoMouse hybridoma; also called L3H3; antibody 3) VH: QVQLVESGGGVVQPGRSLRLSCAASGFTFSSYGMHWVRQAPGKGLEWVAVMWYDGSNKDYVDSVKGRFTISRDNSKNTLYLQMNRLRAEDTAVYYCAREKDHYDILTGYNYYYGLDVWGQGTTVTVSS VL: DIQMTQSPSSLSASVGDRVTITCRASQGIRNDLGWYQQKPGKAPKRLIYAASSLQSGVPSRFSGSGSGTEFTLTISSVQPEDFVTYYCLQHNSNPLTFGGGTKVEIK					9.1	22.5	4.9	13.5	1.6	5	0.5	3.2
antibody A-4 (antibody, V domains shown, Human antibody from XenoMouse hybridoma (IgG2 or IgG4 strains), purified from conditioned medium; also called L4H4; antibody 4) VH: QVQLVESGGGVVQPGRSLRLSCAASGFTFSSYGMHWVRQAPGKGLEWVAVMWYDGSNKDYVDSVKGRFTISRDNSKNTLYLQMNSLRAEDTAVYYCAREKDHYDILTGYNYYYGLDVWGQGTTVTVSS VL: DIQMTQSPSSLSASVGDRVTITCRASQGIRNDLGWYQQKPGKAPKRLIYAASSLQSGVPSRFSGSGSGTEFTLTISSLQPEDFATYYCLQHNSNPLTFGGGTKVEIK					18.1	52.1	10.1	17.2	1.76	5.7	0.88	
antibody A-18 (antibody, V domains shown, Human antibody from XenoMouse hybridoma (IgG2 or IgG4 strains), purified from conditioned medium; also called L18H18) VH: QVQLVESGGGVVQPGRSLRLSCAASGFTFSRYGMHWVRQAPGKGLEWVAVIWYDGSHKYYEDSVKGRFTISRDNSKNTLYLQMNSLRADDTGVYYCARVGYGSGWYEYYYHYGMDVWGQGTTVTVSS VL: NIVMTQTPLSLSVTPGQPASISCKSSQSLLHSDGKNYLFWYLQKPGQSPQLLIYEVSYRFSGVPDRFSGSGSGTDFSLKISRVEAEDVGVYYCMQNIQPPLTFGQGTRLEIK	no binding	no binding	no binding	204								
